The source of these data is US7803377B2, “Anti-DLL4 antibodies and methods using same” (Genentech, Inc., priority 2006, dated 2010).

As a reminder, the Kd is the constant that tells how readily two partners part at equilibrium.

Series [1] has as its system adult retinal vasculature. Briefly: Adult mouse retina vasculature (ASMA and isolectin staining). The class given is in vivo. The note with it: 8 week-old mice, 10 mg/kg, twice weekly for two weeks. The source says:
FIG. 8: DLL4-mediated Notch signaling regulated EC differentiation. a, The lumen-like structures (white arrows) formed by HUVECs growing in fibrin gels were lost in the presence of anti-DLL4 antibody or DBZ. Instead, the spouts were highly packed with cells (black arrows). b, Regulation of TGFβ2 by Notch. Quantitative PCR analysis of TGFβ2 expression in response to, Notch blockade in 3-D fibrin gel culture of HUVECs for (7 d) by anti-DLL4 antibody or DBZ (left), or Notch activation in 2-D culture of HUVECs (36 hr) by immobilized DLL4 (right). c, Anti-DLL4 antibody blocks arterial development. Confocal images of neonatal mouse retinas stained with alpha smooth muscle actin (ASMA) and isolectin. Neonatal mice were treated as described in FIG. 1d. d, Confocal images of adult mouse retinas stained with ASMA and isolectin. 8 week-old mice were treated with PBS or anti-DLL4 antibody (10 mg/kg, twice weekly) for two weeks.
Thus, DLL4/Notch signaling is critical during active angiogenesis, but plays a less important role in normal vessel maintenance.

For series [2], the system named is non-small lung cancer H1299 cells. Briefly: Tumor model H1299. Type of series: in vivo, mouse. As to conditions: 5 mg/kg, IP, twice weekly after establishment of the tumors. The protocol:
(§1) Tumor models. Beige nude female mice of 8- to 10-week-old were used. To obtain subcutaneous tumors, mice were injected with 0.1 ml cell suspension containing 50% matrigel (BD Bioscience) into the right posterior flank. 5×10^6 human colon cancer HM7 cells, 10×10^6 human colon carcinoma Colo205 cells, 10×10^6 human lung carcinoma Calu6 cells, 10×10^6 human lung carcinoma MV-522 cells, 10×10^6 mouse leukemia WEHI-3 cells, 10×10^6 mouse lymphoma EL4 cells, 10×10^6 human ovarian cancer SK-OV-3 X1 cells, 10×06 mouse lung cancer LL2 cells, 10×10^6 leukemia/lymphoma EL4 cells, or 10×10^6 non-small lung cancer H1299 cells were injected into each mouse. For human melanoma MDA-MB-435 model, mice were injected into the mammary fat pad with 0.1 ml cell (5×10^6) suspension containing 50% matrigel. […] For the following tumor models, each test mouse received a subcutaneous tumor fragment (1 mm^3) implanted in the right flank: non-small lung cancer SKMES-1, human breast cancer MX-1, human colorectal cancer SW620 and human adenocarcinoma LS174T. The tumor growth was quantitated by caliper measurements. Tumor volume (mm^3) was determined by measuring the length (l) and width (w) and calculating the volume (V=lw2/2). 10 to 15 animals were included in each group. Statistical comparison of treatment groups was performed using two-tailed Student's t-test. […]

In series [3] the test system is small intestines. In words: Histology and immunohistochemistry of mouse intestines. As to conditions: anti-DLL4 antibody 10 mg/kg, twice weekly for 6 weeks. Type of series: in vivo. The protocol:
FIG. 10: DLL4/Notch was dispensable in the homeostasis of mouse intestine. Immunohistochemical studies of small intestines from control (a, d, g, j), anti-DLL4 antibody (10 mg/kg, twice weekly for 6 weeks) (b, e, h, k), and DBZ treated (30 μmol/kg daily for 5 days) (c, f, i, l) mice.
Histology and immunohistochemistry of mouse intestines. Formalin-fixed and paraffin-embedded mouse small intestine tissues were sectioned at 3 μm thickness. Histochemical identification of intestinal cell types was performed with Alcian blue as recommended by the manufacturer (PolyScientific). For anti-Ki67 staining, sections were pretreated with Target Retrieval Solution (S1700, DAKO), and incubated with rabbit anti-Ki67 (1:200, clone SP6, Neomarkers). Secondary goat anti-rabbit at 7.5 µg/ml (Vector labs) was detected with the Vectastain ABC Elite Kit (Vector labs). All Ki67 stained sections were counterstained with Mayer's hematoxylin. For HES-1 staining, anti-rat HES-1 (clone NM1, MBL, International), followed by TSA-HRP, was used.
A major concern about global inhibition of Notch is that it may be deleterious, given the pleiotropic roles of Notch signaling in regulating the homeostasis of postnatal self-renewal systems. For instance, Notch signaling is required to maintain undifferentiated crypt progenitor cells in intestines (van Es, J. H. et al. Nature 435, 959-63 (2005); Fre, S. et al. Nature 435, 964-8 (2005)). Indeed, γ-secretase inhibitors, which would indiscriminately block all Notch activities, cause unwanted side effects in rodents duo to a massive increase in goblet cells within the crypt compartment (Milano, J. et al. Toxicol Sci 82, 341-58 (2004); Wong, G. T. et al. J Biol Chem 279, 12876-82 (2004)). We examined the small intestines of mice treated with anti-DLL4 Mab by immunohistochemistry analyses.

The subject of series [4] is human adenocarcinoma LS174T. Briefly: Tumor model LS174T. As to conditions: 5 mg/kg, IP, twice weekly after establishment of the tumors. The class given is in vivo, mouse. The protocol: as §1
Series [5] deals with T1, human Delta4 (ECD5.5) (Homo sapiens, UniProt Q9NR61).
T1 construct: DLL4-His (C-terminal His-tagged human DLL4, amino acid 1-404); His (C)
T1 sequence (Q9NR61 27-404): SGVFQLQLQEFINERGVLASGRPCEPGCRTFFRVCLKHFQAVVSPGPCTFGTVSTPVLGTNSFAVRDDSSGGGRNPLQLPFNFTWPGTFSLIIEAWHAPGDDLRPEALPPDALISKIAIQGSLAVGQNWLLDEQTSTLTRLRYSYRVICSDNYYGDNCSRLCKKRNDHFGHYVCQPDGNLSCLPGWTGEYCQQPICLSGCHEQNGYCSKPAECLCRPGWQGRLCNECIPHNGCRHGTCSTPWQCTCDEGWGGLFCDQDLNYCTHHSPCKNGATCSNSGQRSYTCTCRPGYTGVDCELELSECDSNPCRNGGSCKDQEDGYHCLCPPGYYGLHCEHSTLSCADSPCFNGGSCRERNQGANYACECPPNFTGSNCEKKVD
In words: Surface plasmon resonance (BIAcore-3000) binding affinity and kinetics. As to conditions: human DLL4-His; Kd calculated as koff/kon; listed as YW26.81. The protocol:
(§2) To determine the binding affinity of the anti-DLL4 Mabs, surface plasmon resonance (SRP) measurement with a BIAcore™-3000 was used (BIAcore, Inc., Piscataway, N.J.). Briefly, carboxymethylated dextran biosensor chips (CM5, BIAcore Inc.) were activated with N-ethyl-N′-(3-dimethylaminopropyl)-carbodiimide hydrochloride (EDC) and N-hydroxysuccinimide (NHS) according to the supplier's instructions. Anti-DLL4 antibody was diluted with 10 mM sodium acetate, pH 4.8, into 5 μg/ml before injection at a flow rate of 5 μl/minute to achieve approximately 500 response units (RU) of coupled antibody. Next, IM ethanolamine was injected to block unreacted groups. For kinetics measurements, two-fold serial dilutions of either human or murine DLL4-His molecules (0.7 nM to 500 nM) were injected in PBS with 0.05% Tween™ 20 at 25° C. at a flow rate of 25 μl/min. Association rates (kon) and dissociation rates (koff) were calculated using a simple one-to-one Langmuir binding model (BIAcore Evaluation Software version 3.2). The equilibrium dissociation constant (Kd) was calculated as the ratio koff/kon.

Series [6] addresses T2, murine Delta4 (ECD5.5) (Mus musculus, UniProt Q9JI71).
T2 construct: murine Delta4 (ECD5.5); His
The series is described as above. As to conditions: murine DLL4-His; Kd calculated as koff/kon. The protocol: as §2

Series [7] relates to human lung carcinoma MV-522 cells. In words: Tumor model MV-522. The class given is in vivo, mouse. The note with it: treatment initiated at ≧250 mm^3. The protocol:
as §1

T2 sequence (Q9JI71 27-405 limits assumed): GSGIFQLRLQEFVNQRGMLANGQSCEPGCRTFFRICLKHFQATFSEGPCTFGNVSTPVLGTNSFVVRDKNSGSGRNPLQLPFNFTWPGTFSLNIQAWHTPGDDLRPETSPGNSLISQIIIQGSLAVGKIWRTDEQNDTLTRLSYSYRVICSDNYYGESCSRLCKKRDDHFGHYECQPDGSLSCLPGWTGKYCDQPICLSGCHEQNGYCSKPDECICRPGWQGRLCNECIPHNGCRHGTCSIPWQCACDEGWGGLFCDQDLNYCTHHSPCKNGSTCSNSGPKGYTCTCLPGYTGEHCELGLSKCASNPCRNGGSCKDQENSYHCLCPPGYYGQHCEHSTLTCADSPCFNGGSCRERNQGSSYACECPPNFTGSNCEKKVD

Take “YW26.82: affinity matured anti-DLL4 monoclonal antibody; HVR-H1/H2/H3 SEQ ID NO:1, 8, 9; HVR-L1/L2/L3 SEQ ID NO:10, 11, 18”: the “impact on adult retinal vasculature” value in series [1] is “no visible impact on adult retinal vasculature”. Besides, the “tumor growth, single agent” value is “inhibited tumor growth alone” in series [2], “inhibited tumor growth alone” in series [4] and “inhibited tumor growth” in series [7]. The entries for the “epithelial crypt cell differentiation or proliferation in small intestine” value in series [3] and in series [3] (listed as anti-DLL4 Mab) were “entirely absent” and “no differences in epithelial crypt cell differentiation or proliferation profiles”, respectively. In series [3], the “expression of Notch target gene HES-1 in transit amplifying (TA) population” value is recorded as “did not alter the expression of the Notch target gene HES-1”. The dissociation constant Kd is 0.1 nM in series [5] and 0.09 nM in series [6]. For the same substance, the “tumor growth, combination of YW26.82 and anti-VEGF” value in series [7] (combination with anti-VEGF) is given as “most effective”.
